In PMC9813255 (2023):

T1: GST-Atxn1-86Q (UniProt P54253 1-815)
T1 chain: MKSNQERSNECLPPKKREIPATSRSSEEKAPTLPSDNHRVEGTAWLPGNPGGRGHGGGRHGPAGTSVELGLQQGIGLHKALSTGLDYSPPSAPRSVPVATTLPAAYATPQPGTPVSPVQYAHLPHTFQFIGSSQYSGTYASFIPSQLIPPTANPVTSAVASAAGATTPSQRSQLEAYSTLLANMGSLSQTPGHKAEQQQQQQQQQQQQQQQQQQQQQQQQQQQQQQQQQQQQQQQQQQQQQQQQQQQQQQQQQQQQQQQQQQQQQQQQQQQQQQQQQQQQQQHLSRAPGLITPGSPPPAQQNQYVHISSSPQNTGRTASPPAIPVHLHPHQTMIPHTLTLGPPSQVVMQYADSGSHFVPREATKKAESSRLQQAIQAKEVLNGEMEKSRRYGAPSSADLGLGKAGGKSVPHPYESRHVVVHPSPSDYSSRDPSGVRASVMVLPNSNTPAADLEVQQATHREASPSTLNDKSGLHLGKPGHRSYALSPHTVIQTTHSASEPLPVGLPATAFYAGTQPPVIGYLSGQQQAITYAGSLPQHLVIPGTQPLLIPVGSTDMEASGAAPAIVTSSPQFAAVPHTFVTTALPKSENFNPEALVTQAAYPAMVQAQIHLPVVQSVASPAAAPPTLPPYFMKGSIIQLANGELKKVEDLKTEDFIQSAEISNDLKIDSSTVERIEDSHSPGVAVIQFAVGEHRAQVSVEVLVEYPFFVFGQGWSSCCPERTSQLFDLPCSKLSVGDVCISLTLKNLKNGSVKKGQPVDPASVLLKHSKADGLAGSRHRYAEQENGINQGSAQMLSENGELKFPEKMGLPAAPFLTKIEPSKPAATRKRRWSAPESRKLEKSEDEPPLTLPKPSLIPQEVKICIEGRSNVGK

T2: GST-Atxn1-33Q (UniProt P54253 1-815)
T2 chain: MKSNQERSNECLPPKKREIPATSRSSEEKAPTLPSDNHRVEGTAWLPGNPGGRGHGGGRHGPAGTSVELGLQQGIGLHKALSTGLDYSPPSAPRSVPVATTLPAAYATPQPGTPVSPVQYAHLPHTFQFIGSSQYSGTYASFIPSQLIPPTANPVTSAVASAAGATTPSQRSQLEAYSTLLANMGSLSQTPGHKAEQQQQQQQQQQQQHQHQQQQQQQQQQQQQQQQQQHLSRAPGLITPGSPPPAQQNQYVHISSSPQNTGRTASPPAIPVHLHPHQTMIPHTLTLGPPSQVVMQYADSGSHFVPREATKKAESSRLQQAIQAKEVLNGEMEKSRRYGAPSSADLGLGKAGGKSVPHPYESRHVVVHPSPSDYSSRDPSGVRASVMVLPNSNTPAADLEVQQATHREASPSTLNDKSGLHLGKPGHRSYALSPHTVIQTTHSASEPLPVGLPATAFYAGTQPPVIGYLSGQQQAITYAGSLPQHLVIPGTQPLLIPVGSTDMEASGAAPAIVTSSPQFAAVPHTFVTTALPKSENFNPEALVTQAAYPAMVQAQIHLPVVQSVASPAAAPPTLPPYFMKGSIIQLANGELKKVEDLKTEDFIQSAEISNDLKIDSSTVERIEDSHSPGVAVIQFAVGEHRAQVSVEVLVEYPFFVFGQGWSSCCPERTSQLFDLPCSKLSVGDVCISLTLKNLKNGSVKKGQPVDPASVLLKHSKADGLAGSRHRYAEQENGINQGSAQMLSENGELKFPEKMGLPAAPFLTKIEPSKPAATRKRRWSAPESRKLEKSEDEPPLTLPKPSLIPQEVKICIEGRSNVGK

T3: GST-Htt-20Q
T3 chain: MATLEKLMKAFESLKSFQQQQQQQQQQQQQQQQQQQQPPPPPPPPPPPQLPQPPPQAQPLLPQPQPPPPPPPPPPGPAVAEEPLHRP

B1: PQBP5-Δ2 (protein)
chain: PRTRNRVGLLDCALNSVTADSEINSLPTISALKFNGALTMAVGTTTGQVLLYDLRSDKPLLVKDHQYGLPIKSVHFQDSLDLILSADSRIVKMWNKNSGKIFTSLEPEHDLNDVCLYPNSGMLLTANETPKMGIYYIPVLGPAPRWCSFLDNLTEELEENPESTVYDDYKFVTKKDLENLGLTHLIGSPFLRAYMHGFFMDIRLYHKVKLMVNPFAYEEYRKDKIRQKIEETRAQRVQLKKLPKVNKELALKLIEEEEEKQKSTWKKKVKSLPNILTDDRFKVMFENPDFQVDEESEEFRLLNPLVSKISEKRKKKLRLLEQQELREKEEEEEPEGKPSDAESSESSDDEKAWVEEVRKQRRLLQQEEKVKRQERLKEDQQTVLKPQFYEIKAGEEFRSFKDSATKQKLMNKTLEDRLKIEAKNGTLSVSDTTVGSKQLTFTLKRSEQQKKQQEAEKLHRQERKRLRRSAGHLKSRHKRGRSFH
modifications: Delta number assigned from the order of the constructs in the methods; initiator Met from the primer and tag omitted.
B2: PQBP5-Δ5 (protein)
chain: MQVSSLNEVKIYSLSCGKSLPEWLSDRKKRALQKKDVDVRRRIELIQDFEMPTVCTTIKVSKDGQYILATGTYKPRVRCYDTYQLSLKFERCLDSEVVTFEILSDDYSKIVFLHNDRYIEFHSQSGFYYKTRIPKFGRDFSYHYPSCDLYFVGASSEVYRLNLEQGRYLNPLQTDAAENNVCDINSVHGLFATGTIEGRVECWDPRTRNRVGLLDCALNSVTADSEINSLPTISALKFNGALTMAVGTTTGQVLLYDLRSDKPLLVKDHQYGLPIKSVHFQDSLDLILSADSRIVKMWNKNSGKIFTSLEPEHDLNDVCLYPNSGMLLTANETPKMGIYYIPVLGPAPRWCSFLDNLTEELEENPESTVYDDYKFVTKKDLENLGLTHLIGSPFLRAYMHGFFMDIRLYHKVKLMVNPFAYEEYRKDKIRQKIEETRAQRVQLKKLPKVNKELALKLIEEEEEKQKSTWKKKVKSLPNILT
modifications: Delta number assigned from the order of the constructs in the methods (fifth: 1-481, lacking NUC153); tag omitted.
B3: full-length human PQBP5 (His-tag fusion protein) (natural protein)
chain: MQVSSLNEVKIYSLSCGKSLPEWLSDRKKRALQKKDVDVRRRIELIQDFEMPTVCTTIKVSKDGQYILATGTYKPRVRCYDTYQLSLKFERCLDSEVVTFEILSDDYSKIVFLHNDRYIEFHSQSGFYYKTRIPKFGRDFSYHYPSCDLYFVGASSEVYRLNLEQGRYLNPLQTDAAENNVCDINSVHGLFATGTIEGRVECWDPRTRNRVGLLDCALNSVTADSEINSLPTISALKFNGALTMAVGTTTGQVLLYDLRSDKPLLVKDHQYGLPIKSVHFQDSLDLILSADSRIVKMWNKNSGKIFTSLEPEHDLNDVCLYPNSGMLLTANETPKMGIYYIPVLGPAPRWCSFLDNLTEELEENPESTVYDDYKFVTKKDLENLGLTHLIGSPFLRAYMHGFFMDIRLYHKVKLMVNPFAYEEYRKDKIRQKIEETRAQRVQLKKLPKVNKELALKLIEEEEEKQKSTWKKKVKSLPNILTDDRFKVMFENPDFQVDEESEEFRLLNPLVSKISEKRKKKLRLLEQQELREKEEEEEPEGKPSDAESSESSDDEKAWVEEVRKQRRLLQQEEKVKRQERLKEDQQTVLKPQFYEIKAGEEFRSFKDSATKQKLMNKTLEDRLKIEAKNGTLSVSDTTVGSKQLTFTLKRSEQQKKQQEAEKLHRQERKRLRRSAGHLKSRHKRGRSFH
modifications: Exon 1 ends at ...LHRP, which agrees with the printed Htt reverse primer. The entry carries 21Q (18-38); one Q is removed to give the 20Q of the assayed protein name. The plasmid is called 17Q, so the repeat count is ambiguous. GST omitted.
B4: PQBP5-Δ5 (protein)
chain: B2 chain
modifications: Delta number assigned from the order of the constructs in the methods (fifth: 1-481, lacking NUC153); tag omitted. Exon 1 ends at ...LHRP, which agrees with the printed Htt reverse primer. The entry carries 21Q (18-38); one Q is removed to give the 20Q of the assayed protein name. The plasmid is called 17Q, so the repeat count is ambiguous. GST omitted.
B5: PQBP5-Δ3 (protein)
chain: IPVLGPAPRWCSFLDNLTEELEENPESTVYDDYKFVTKKDLENLGLTHLIGSPFLRAYMHGFFMDIRLYHKVKLMVNPFAYEEYRKDKIRQKIEETRAQRVQLKKLPKVNKELALKLIEEEEEKQKSTWKKKVKSLPNILTDDRFKVMFENPDFQVDEESEEFRLLNPLVSKISEKRKKKLRLLEQQELREKEEEEEPEGKPSDAESSESSDDEKAWVEEVRKQRRLLQQEEKVKRQERLKEDQQTVLKPQFYEIKAGEEFRSFKDSATKQKLMNKTLEDRLKIEAKNGTLSVSDTTVGSKQLTFTLKRSEQQKKQQEAEKLHRQERKRLRRSAGHLKSRHKRGRSFH
modifications: Delta number assigned from the order of the constructs in the methods; initiator Met from the primer and tag omitted.
B6: PQBP5-Δ3 (protein)
chain: B5 chain
modifications: Delta number assigned from the order of the constructs in the methods; initiator Met from the primer and tag omitted. Exon 1 ends at ...LHRP, which agrees with the printed Htt reverse primer. The entry carries 21Q (18-38); one Q is removed to give the 20Q of the assayed protein name. The plasmid is called 17Q, so the repeat count is ambiguous. GST omitted.
B7: PQBP5-Δ2 (protein)
chain: B1 chain
modifications: Delta number assigned from the order of the constructs in the methods; initiator Met from the primer and tag omitted. Exon 1 ends at ...LHRP, which agrees with the printed Htt reverse primer. The entry carries 21Q (18-38); one Q is removed to give the 20Q of the assayed protein name. The plasmid is called 17Q, so the repeat count is ambiguous. GST omitted.
B8: PQBP5-Δ1 (protein)
chain: TYQLSLKFERCLDSEVVTFEILSDDYSKIVFLHNDRYIEFHSQSGFYYKTRIPKFGRDFSYHYPSCDLYFVGASSEVYRLNLEQGRYLNPLQTDAAENNVCDINSVHGLFATGTIEGRVECWDPRTRNRVGLLDCALNSVTADSEINSLPTISALKFNGALTMAVGTTTGQVLLYDLRSDKPLLVKDHQYGLPIKSVHFQDSLDLILSADSRIVKMWNKNSGKIFTSLEPEHDLNDVCLYPNSGMLLTANETPKMGIYYIPVLGPAPRWCSFLDNLTEELEENPESTVYDDYKFVTKKDLENLGLTHLIGSPFLRAYMHGFFMDIRLYHKVKLMVNPFAYEEYRKDKIRQKIEETRAQRVQLKKLPKVNKELALKLIEEEEEKQKSTWKKKVKSLPNILTDDRFKVMFENPDFQVDEESEEFRLLNPLVSKISEKRKKKLRLLEQQELREKEEEEEPEGKPSDAESSESSDDEKAWVEEVRKQRRLLQQEEKVKRQERLKEDQQTVLKPQFYEIKAGEEFRSFKDSATKQKLMNKTLEDRLKIEAKNGTLSVSDTTVGSKQLTFTLKRSEQQKKQQEAEKLHRQERKRLRRSAGHLKSRHKRGRSFH
modifications: Delta number assigned from the order of the constructs in the methods; initiator Met from the primer and tag omitted. Exon 1 ends at ...LHRP, which agrees with the printed Htt reverse primer. The entry carries 21Q (18-38); one Q is removed to give the 20Q of the assayed protein name. The plasmid is called 17Q, so the repeat count is ambiguous. GST omitted.

Assays:
Assay in all cases: SPR
[1] = target: T1, GST-Atxn1-86Q
[2] = target: T2, GST-Atxn1-33Q
[3] = target: T3, GST-Htt-20Q

Row | Binder | Kd [1] [nM] | Kd [2] [nM] | Kd [3] [nM]
1 | B1 | 183 | 830 | –
2 | B2 | 0.128 | 0.194 | –
3 | B3 | – | – | 0.0308
4 | B4 | – | – | 0.354
5 | B5 | – | 255 | –
6 | B6 | – | – | 402
7 | B7 | – | – | 463
8 | B8 | – | – | 2.67
